# How the values were obtained:
# [1] = system: TGF-β-signalling; assay: SBE-Luc activity in TβR-deficient DR26 and R1B cells; format: cell-based, mink
# Source text: Having identified CYLD as a negative regulator of TGF-β-signalling and lung fibrosis, we next sought to determine how CYLD inhibits TGF-β-signalling. TGF-β-ligands bind to a type II receptor (TβRII), which recruits and phosphorylates a type I receptor (TβRI). The activated TβRI then phosphorylates the Smad subgroup known as receptor-activated Smads (R-Smad), for example, Smad3, which can bind to Co-Smad Smad4. The R-Smad and Co-Smad complex then undergoes nuclear translocation for target gene regulation. To first determine at which level CYLD inhibits TGF-β-signalling, we took advantage of the available lung epithelial cell lines, DR26 and R1B that are derived from the WT Mv1Lu cells and lack functional […] TβRI, respectively. […] We next determined whether CYLD exerts its inhibitory effect on TGF-β-signalling at the level or downstream of TβRI by assessing the effects of siCYLD on WT-Smad3-induced SBE-Luc activity in TβRI-deficient R1B cells. […] To further determine whether CYLD inhibits TGF-β-signalling by likely targeting Smad3, we next evaluated the effect of CYLD knockdown in Smad3-deficient MEF cells.
# A549, HeLa and HEK293 cells were maintained in the F12-K, minimal essential medium Eagle's with Earle's balanced salt solution (EMEM), and DMEM […]. […]
# [2] = system: TGF-β-induced fibrotic response; assay: TGF-β-induced fibrotic response in TRAF6-depleted cells; format: cell-based
# Source text: Because K14 lysine in the pleckstrin homology domain of Akt is critical for mediating its function, we next determined whether mutation of K14 lysine to arginine (R) reduces polyubiquitination of Akt. […] We further determined whether K14 residue in Akt is indeed functionally critical for mediating CYLD-induced inhibition of TGF-β-signalling. […] TNF receptor-associated factor 6 (TRAF6) was previously shown to function as an E3 ligase for Akt-K63 polyubiquitination and CYLD deubiquitinates TRAF6. Thus, we next explored the possibility that CYLD may inhibit Akt-mediated fibrotic responses via deubiquitinating TRAF6.
# It is possible that CYLD may inhibit Akt-mediated fibrotic response by actually deubiquitinating TRAF6. Thus, we evaluated the effect of siCYLD on TGF-β-induced fibrotic response in TRAF6-depleted cells using siTRAF6. […] Here we have provided strong evidence that CYLD inhibits S. pneumoniae-induced Smad3-dependent fibrosis via inhibiting Akt, thereby linking CYLD to Smad3 via Akt. It is still unclear whether or not direct activation of Akt induces a fibrotic response via Smad3. Indeed, direct activation of Akt by expressing a constitutively active form of C/A-Akt induces expression of the fibrotic response gene PAI-1 and CTGF in Smad3+/+ cells, but not in Smad3−/− cells. […]
# [3] = system: PAI-1; assay: TGF-β-induced PAI-1 expression in Akt1−/− cells; format: cell-based
# Source text: Thus, we determined the effect of knockdown of both Akt1 and 2 on Smad3 protein level in these cells. […] We further confirmed whether activation of Akt does induce upregulation of fibrotic response gene expression via Smad3. Activation of Akt by expressing a constitutively active C/A-Akt indeed induced expression of PAI-1 and CTGF in Smad3+/+ cells, but not in Smad3−/− cells. […] PI3 K is known as the one of the major signalling molecules upstream of Akt. We thus determined whether PI3K, like Akt, is also involved in mediating CYLD-dependent Smad3 degradation by evaluating the effect of PI3K and Akt inhibitors on Smad3 protein expression. […] Further studies are needed to determine whether CYLD-Akt-mediated regulation of Smad3 is indeed independent of PI3K by using more specific approaches.
molecule,measurement,setting,value
"siCYLD: RNA-mediated interference for downregulating CYLD expression using pSuper-CYLD, SEQ ID NO:13 (nucleic acid, expressed from pSuper vector) GATCCCCGAGCTACTGAGGACAGAAATTCAAGAGATTTCTGTCCTCAGTAGCTCTTTTTGGAAA",WT-Smad3-induced SBE-Luc activation,[1]; TβRI-deficient R1B cells,markedly enhanced
same,constitutively active (C/A)-TβRI-induced SBE-Luc activity,[1]; TβRII-deficient DR26 cells,markedly enhanced
same,TGF-β-induced fibrotic response,[2],still enhanced
same,TGF-β-induced PAI-1 expression,[3],no longer enhanced
